Data: patent publication US20210253715A1 (NATIONAL RESEARCH COUNCIL OF CANADA, published 2021)
One block for each binder: values may come before it.

Assays:
[1] = target: T1, human IGF1R (human, UniProt P08069 31-932, limits assumed); test: SPR, Biacore T200, hIGF1R immobilised on CM4 chip; parental VHH, not the IDS fusion
T1 construct: also called hIGF1R; h-IGF1R

[2] = target: T1, human IGF1R; test: SPR (Biacore T200), hIGF1R immobilised on CM4 chip, analyte injected at 20 nM, 25 C
Procedure: (§1) Surface Plasmon Resonance (SPR) analysis was performed to determine the affinity of the IGF1R3H5-IDS construct towards human IGF1R (hIGR1R). The SPR analysis was performed on a Biacore T200 (GE Healthcare) under the following conditions. hIGF1R was immobilized on a CM4 chip at high density (FC1—ethanoloamine blocked; FC3—2,500 RUs of hIGF1R). A variable concentration of the flowing molecule was used, with contact and dissociations times of 300 and 400 s, respectively. The assay was performed at 25° C. with a flow rate of 40 μL/min and the chip was regenerated in 10 mM glycine (pH 5.5). […] In summary, the IGF1R3H5-IDS construct retains its ability to bind to the target receptor IGF1R.

[3] = target: T1, human IGF1R; test: SPR (Biacore T200), hIGF1R immobilised on CM4 chip, analyte injected at 2.5 nM, 25 C
Procedure: as §1

[4] = target: T1, human IGF1R; test: SPR, Biacore T200, hIGF1R immobilised on CM4 chip, analyte at 2.5 nM (FIG. 5C); analyte at 2.5 nM (FIG. 5C)
Procedure: as §1

[5] = target: T1, human IGF1R; test: SPR (Biacore T200), hIGF1R immobilised on CM4 chip, analyte injected at 50 nM, 25 C; text says matrix effects lower the on-rate at this concentration
Procedure: as §1

[6] = target: T1, human IGF1R; test: SPR (Biacore T200), hIGF1R immobilised on CM4 chip, analyte injected at 50 nM, 25 C; text calls the affinity at this concentration inaccurate (matrix effects)
Procedure: as §1

[7] = target: T1, human IGF1R; test: SPR, Biacore T200, hIGF1R immobilised on CM4 chip, analyte at 50 nM (FIG. 5D); the filing calls this value inaccurate because of matrix effects; analyte at 50 nM (FIG. 5D); matrix effects, called inaccurate
Procedure: as §1

T1 sequence (P08069 31-932 limits assumed): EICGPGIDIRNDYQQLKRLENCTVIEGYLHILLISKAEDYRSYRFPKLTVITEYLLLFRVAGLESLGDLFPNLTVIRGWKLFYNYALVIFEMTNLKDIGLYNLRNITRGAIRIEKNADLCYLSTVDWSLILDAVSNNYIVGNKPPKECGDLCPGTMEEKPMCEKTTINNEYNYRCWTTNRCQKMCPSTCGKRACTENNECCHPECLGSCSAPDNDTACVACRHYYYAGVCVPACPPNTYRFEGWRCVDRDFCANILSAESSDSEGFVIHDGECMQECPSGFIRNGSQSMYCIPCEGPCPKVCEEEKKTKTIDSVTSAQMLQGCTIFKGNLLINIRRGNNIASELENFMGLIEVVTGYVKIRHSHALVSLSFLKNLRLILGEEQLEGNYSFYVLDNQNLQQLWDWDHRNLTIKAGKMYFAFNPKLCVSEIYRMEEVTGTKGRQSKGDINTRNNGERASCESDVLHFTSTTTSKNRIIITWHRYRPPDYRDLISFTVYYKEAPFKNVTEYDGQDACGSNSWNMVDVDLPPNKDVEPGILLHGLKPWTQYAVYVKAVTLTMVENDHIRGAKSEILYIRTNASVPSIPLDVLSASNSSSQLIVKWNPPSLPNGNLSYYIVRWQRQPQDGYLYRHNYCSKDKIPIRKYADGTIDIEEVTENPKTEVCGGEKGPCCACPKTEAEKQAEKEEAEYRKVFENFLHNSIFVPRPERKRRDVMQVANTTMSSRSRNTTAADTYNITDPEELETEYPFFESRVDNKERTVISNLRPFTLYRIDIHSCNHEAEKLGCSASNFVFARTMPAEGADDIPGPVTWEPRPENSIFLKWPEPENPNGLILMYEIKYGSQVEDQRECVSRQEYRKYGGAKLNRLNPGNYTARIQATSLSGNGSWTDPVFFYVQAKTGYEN

Kd [1]: 7.5 nM
koff [1]: 0.00251 s⁻¹
kon [1]: 334000 M⁻¹ s⁻¹
B1: IGF1R3H5 VHH (VHH)
VHH: EVQLVESGGGLVQPGGSLRLSCAASEYPSNFYAMSWFRQAPGKEREFVSGVSRDGLTTLYADSVKGRFTISRDNSKNTLYLQMNSLRAEDTAVYYCAIVITGVWNKVDVNSRSYHYWGQGTLVTVSS
notes: also called parental VHH IGF1R3H5

Kd [2]: 40.2 nM
koff [2]: 0.00289 s⁻¹
kon [2]: 71900 M⁻¹ s⁻¹
B2: IGF1R3H5-IDS (uncapped) (other)
chain: EVQLVESGGGLVQPGGSLRLSCAASEYPSNFYAMSWFRQAPGKEREFVSGVSRDGLTTLYADSVKGRFTISRDNSKNTLYLQMNSLRAEDTAVYYCAIVITGVWNKVDVNSRSYHYWGQGTLVTVSSGGGGSGGGGSGGGGSGGGGSGGGGSSETQANSTTDALNVLLIIVDDLRPSLGCYGDKLVRSPNIDQLASHSLLFQNAFAQQAVCAPSRVSFLTGRRPDTTRLYDFNSYWRVHAGNFSTIPQYFKENGYVTMSVGKVFHPGISSNHTDDSPYSWSFPPYHPSSEKYENTKTCRGPDGELHANLLCPVDVLDVPEGTLPDKQSTEQAIQLLEKMKTSASPFFLAVGYHKPHIPFRYPKEFQKLYPLENITLAPDPEVPDGLPPVAYNPWMDIRQREDVQALNISVPYGPIPVDFQRKIRQSYFASVSYLDTQVGRLLSALDDLQLANSTIIAFTSDHGWALGEHGEWAKYSNFDVATHVPLIFYVPGRTASLPEAGEKLFPYLDPFDSASQLMEPGRQSMDLVELVSLFPTLAGLAGLQVPPRCPVPSFHVELCREGKNLLKHFRFRDLEEDPYLPGNPRELIAYSQYPRPSDIPQWNSDKPSLKDIKIMGYSIRTIDYRYTVWVGFNPDEFLANFSDIHAGELYFVDSDPLQDHNMYNDSQGGDLFQLLMPHHHHHHHHWSHPQFEK
modifications: phosphorylated N-glycans; Man-6-P uncapped by Jack Bean alpha-mannosidase (JBMan) treatment
notes: Single-chain fusion of a VHH with an enzyme, made in Yarrowia lipolytica; the two differ only in N-glycan uncapping; also called uncapped IGF1R3H5-IDS; P454

Kd [2]: 46.1 nM
koff [2]: 0.00295 s⁻¹
kon [2]: 64000 M⁻¹ s⁻¹
Kd [3]: 7.42 nM
koff [3]: 0.00288 s⁻¹
kon [3]: 388000 M⁻¹ s⁻¹
Kd [4]: ~7 nM
koff [5]: 0.0029 s⁻¹
kon [5]: 42000 M⁻¹ s⁻¹
Kd [6]: 69.8 nM
Kd [7]: ~70 nM
B3: IGF1R3H5-IDS (capped) (other)
chain: B2 chain
modifications: phosphorylated N-glycans; Man-6-P still capped (no uncapping)
notes: also called capped IGF1R3H5-IDS
